Test results taken from article PMC9385276.
Read-outs that look alike come from different tables or passages of the source.

Columns and labels:
PDGF-BB [1] = molecular target: T1, PDGF-BB (human, UniProt P01127 82-190); assay: ELISA
PDGF-BB [2] = molecular target: T1, PDGF-BB; assay: ELISA; remark: listed apart in the source

T1 sequence (P01127 82-190): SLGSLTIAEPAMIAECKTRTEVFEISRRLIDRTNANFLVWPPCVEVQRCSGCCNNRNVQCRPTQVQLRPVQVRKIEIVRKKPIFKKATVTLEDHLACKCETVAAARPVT

Row | Binder | binding result (PDGF-BB [1]) | binding result (PDGF-BB [2])
1 | Aa10 (structured_DNA) DNA: CAGGCTACGGCACGTAGAGCATCACCATGATCCTGAAAAAATAATACGACTCACTATAGGGTCCGTAGCCTG | binds | 
2 | Aa11 (structured_DNA) DNA: CAGGCTACGGCACGTAGAGCATCACCATGATCCTGAAAAAATAATACGACTCACTATAGGGCCGTAGCCTG |  | binds
